From US20140072613A1 (published 2014)

Assays:
Test in all cases: cell-based or functional assay
[1] = target: cKit(D816H)(h) (human, UniProt P10721 544-976)
[2] = target: MLCK(h) (human)
[3] = target: KDR(h) (human, UniProt P35968 790-1356, limits assumed)
[4] = target: Met(D1246N)(h) (human, UniProt P08581-2 974-1408, limits assumed)
[5] = target: T1, PKCζ(h) (human, UniProt Q05513 1-592)
T1 sequence (looked up): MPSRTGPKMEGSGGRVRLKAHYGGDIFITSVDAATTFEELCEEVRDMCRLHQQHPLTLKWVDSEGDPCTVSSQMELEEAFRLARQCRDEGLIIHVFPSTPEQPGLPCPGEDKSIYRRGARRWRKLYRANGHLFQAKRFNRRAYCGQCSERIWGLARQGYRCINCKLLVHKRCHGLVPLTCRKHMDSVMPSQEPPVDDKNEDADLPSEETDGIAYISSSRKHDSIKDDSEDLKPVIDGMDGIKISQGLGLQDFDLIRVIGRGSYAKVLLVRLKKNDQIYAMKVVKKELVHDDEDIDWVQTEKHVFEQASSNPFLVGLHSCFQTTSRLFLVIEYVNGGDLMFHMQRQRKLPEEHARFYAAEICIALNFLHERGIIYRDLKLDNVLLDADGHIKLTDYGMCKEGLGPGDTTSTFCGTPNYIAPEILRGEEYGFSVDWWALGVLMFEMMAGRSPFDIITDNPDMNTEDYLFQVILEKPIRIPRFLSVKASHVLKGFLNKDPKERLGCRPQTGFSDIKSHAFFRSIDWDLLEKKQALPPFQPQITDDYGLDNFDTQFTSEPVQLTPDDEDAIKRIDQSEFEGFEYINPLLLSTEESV

[6] = target: IRAK1(h) (human, UniProt P51617 194-712, limits assumed)
[7] = target: Src(T341M)(h) (human, UniProt P12931 1-536, limits assumed)
[8] = target: WNK2(h) (human, UniProt Q9Y3S1 166-489, limits assumed)
[9] = target: T2, Haspin(h) (human, UniProt Q8TF76 471-798, limits assumed)
T2 sequence (looked up): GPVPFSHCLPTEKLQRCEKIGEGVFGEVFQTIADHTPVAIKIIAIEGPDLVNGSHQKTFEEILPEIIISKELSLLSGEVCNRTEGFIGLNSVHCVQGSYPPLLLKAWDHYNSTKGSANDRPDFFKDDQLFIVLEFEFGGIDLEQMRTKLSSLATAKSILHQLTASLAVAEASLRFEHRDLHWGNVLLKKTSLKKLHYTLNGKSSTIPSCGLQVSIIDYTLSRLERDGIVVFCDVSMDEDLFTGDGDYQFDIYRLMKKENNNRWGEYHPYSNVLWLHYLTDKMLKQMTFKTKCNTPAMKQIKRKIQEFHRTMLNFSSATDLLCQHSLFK

[10] = target: CaMKIIβ(h) (human, UniProt Q13554 1-666)
[11] = target: T3, PKG1β(h) (human, UniProt Q13976-2 1-686)
T3 sequence (looked up): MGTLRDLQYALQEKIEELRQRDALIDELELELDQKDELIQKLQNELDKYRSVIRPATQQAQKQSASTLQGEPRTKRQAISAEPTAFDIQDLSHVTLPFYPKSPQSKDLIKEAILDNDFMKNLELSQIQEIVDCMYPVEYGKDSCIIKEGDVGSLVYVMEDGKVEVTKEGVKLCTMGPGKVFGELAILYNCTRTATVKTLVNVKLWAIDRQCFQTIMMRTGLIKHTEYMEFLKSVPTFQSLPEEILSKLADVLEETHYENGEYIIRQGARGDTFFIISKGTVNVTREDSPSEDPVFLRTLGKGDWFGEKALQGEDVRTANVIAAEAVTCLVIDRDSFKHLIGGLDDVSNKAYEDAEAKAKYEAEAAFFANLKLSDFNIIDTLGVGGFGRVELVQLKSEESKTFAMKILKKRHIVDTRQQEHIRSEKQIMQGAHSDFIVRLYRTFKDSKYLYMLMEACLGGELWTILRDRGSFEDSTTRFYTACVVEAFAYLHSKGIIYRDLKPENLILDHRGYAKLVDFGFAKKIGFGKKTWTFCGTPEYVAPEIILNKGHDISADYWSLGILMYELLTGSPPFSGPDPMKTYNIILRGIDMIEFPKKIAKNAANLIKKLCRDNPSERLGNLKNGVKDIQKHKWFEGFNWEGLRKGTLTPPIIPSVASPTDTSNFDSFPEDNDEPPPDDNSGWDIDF

[12] = target: T4, NEK11(h) (human, UniProt Q8NG66 1-645, limits assumed)
T4 sequence (looked up): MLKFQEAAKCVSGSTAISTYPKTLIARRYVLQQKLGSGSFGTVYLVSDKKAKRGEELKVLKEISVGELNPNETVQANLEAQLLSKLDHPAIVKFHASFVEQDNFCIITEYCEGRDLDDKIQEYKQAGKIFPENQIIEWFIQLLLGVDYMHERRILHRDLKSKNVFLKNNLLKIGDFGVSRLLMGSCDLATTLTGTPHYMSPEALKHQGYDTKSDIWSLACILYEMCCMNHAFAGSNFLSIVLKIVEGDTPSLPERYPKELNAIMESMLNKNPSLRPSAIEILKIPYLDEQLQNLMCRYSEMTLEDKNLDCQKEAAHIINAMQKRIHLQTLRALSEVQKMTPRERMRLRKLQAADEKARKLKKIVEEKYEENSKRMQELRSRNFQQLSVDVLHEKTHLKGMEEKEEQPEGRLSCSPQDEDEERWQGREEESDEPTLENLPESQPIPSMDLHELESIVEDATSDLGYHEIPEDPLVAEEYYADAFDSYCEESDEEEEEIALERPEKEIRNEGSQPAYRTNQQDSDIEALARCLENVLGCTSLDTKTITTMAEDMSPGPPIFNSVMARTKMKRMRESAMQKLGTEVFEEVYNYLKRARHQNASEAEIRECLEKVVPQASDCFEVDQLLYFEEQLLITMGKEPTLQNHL

Binder	% activity, 100 µM [1]	% activity, 100 µM [2]	% activity, 100 µM [3]	% activity, 100 µM [4]	% activity, 100 µM [5]	% activity, 100 µM [6]	% activity, 100 µM [7]	% activity, 100 µM [8]	% activity, 100 µM [9]	% activity, 100 µM [10]	% activity, 100 µM [11]	% activity, 100 µM [12]
FAKLAARLYRKALARQLGVAA [MMI-0300]	126%	2%	101%	82%	81%	95%	70%	64%	48%	2%	50%	53%
KAFAKLAARLYRKALARQLGVAA [MMI-0400]	143%	1%	94%	31%	75%	93%	76%	54%	36%	11%	53%	33%
